Reference: the supplement of paper PMC10065799, “High-throughput profiling of sequence recognition by tyrosine kinases and SH2 domains using bacterial peptide display” (eLife, 2023)

The sequences below were run on AncSZ (assay: phosphorylation enrichment, bacterial display (enrichment ratio); higher = better substrate or ligand; peptides without Tyr show the background).
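Further: 11-residue human phosphosite peptides and single-mutation variants displayed on the E. coli surface, counted by deep sequencing, each peptide's frequency after selection divided by its frequency in the unselected input library; frequency after pTyr selection over input frequency; kinase dosed for 20-30% of maximal phosphorylation in three min.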

First: KQQEIYQEVTQ [CD209_Y239_L242V]
Second: YEPDAYYDLDQ [ELP5_Y302_D303Y]
The phosphorylation enrichment of the first is lower: 1.26 for the first, 1.82 for the second.

Compared with CPEASYNRSPI [PTAR1_Y42_R41S], FKTPIYPFLLP [PLD2_Y578_T577I_YF] is higher in phosphorylation enrichment: 0.82 for the first, 1.11 for the second.

Compared with EEQKKNYNAMK [SCN5A_Y1494_Y1494N], RYVVLYDAELT [ERCC4_Y581] is higher in phosphorylation enrichment: 0.572 for the first, 1.3 for the second.

First: FSLIHYARIVD [MYH7_Y582_G584R]
Second: MVSLFYGTALF [OR10C1_Y251]
The phosphorylation enrichment of the first is lower: 1.13 for the first, 1.32 for the second.

First: TRDVNYGWIIH [MT-CYB_Y75_R80H]
Second: FMMMRYSQNVR [SDAD1_Y656]
The phosphorylation enrichment of the first is lower: 1.06 for the first, 1.11 for the second.

Going from REEKNDKLKET [BCLAF1_Y459_Y459D] to FFPANYVAPMT [GRAP2_Y324_L319F], the phosphorylation enrichment falls from 1.32 to 0.924.

Going from SDGHEYIYVDR [PDGFRB_Y579_P584R] to LLREWYMIFSR [HUWE1_Y4066_I4069F], the phosphorylation enrichment rises from 1.33 to 2.11.

Compared with KHMADYPDCKF [SOX11_Y113_Y116C_YF], FLQEIHNSNNQ [FGG_Y140_Y140H_YF] is lower in phosphorylation enrichment: 0.92 for the first, 0.823 for the second.

First: WASGIYYVPKG [APBB1IP_Y340_R335W]
Second: NDFGNYNNQSS [HNRNPA1_Y318]
The phosphorylation enrichment of the first is higher: 3.2 for the first, 0.523 for the second.

First: FMIISYVLIIR [OR1D2_Y218_V214M]
Second: ISKILYHIIKG [CDH17_Y489_S484I]
The phosphorylation enrichment of the first is higher: 0.936 for the first, 0.779 for the second.

Compared with GLIPAYHRVIV [NMNAT1_Y64_M69V], SSGSRYQPLAS [NCAPD2_Y1325_T1321S] is lower in phosphorylation enrichment: 0.804 for the first, 0.529 for the second.

Compared with DRVALYIAREG [AACS_Y117], FTGSTYRVGDT [FN1_Y106_N104S_YF] is lower in phosphorylation enrichment: 0.957 for the first, 0.631 for the second.

First: EALDFYGEVRT [PTEN_Y155]
Second: RDWSHYFKIIE [KRT18_Y129]
The phosphorylation enrichment of the first is lower: 1.23 for the first, 1.46 for the second.

Compared with WQQQSYLDSRI [CTNNB1_Y30_G34R], HSDDDYDDPEL [CLNK_Y69] is higher in phosphorylation enrichment: 0.675 for the first, 1.67 for the second.

Compared with DFNPNYCFAGK [ALK_Y1096_YF], FKGIVYAVSSD [DCX_Y70] is lower in phosphorylation enrichment: 1.67 for the first, 0.86 for the second.

Going from HKANEYFPVVL [ADAMTS18_Y764_YF] to QGLRLYRAHLA [BTK_Y617_P619A], the phosphorylation enrichment rises from 0.872 to 1.43.

Sequence MYRVQYNSSVD [LRFN1_Y458_Q455R] has a phosphorylation enrichment of 0.785.

These sequences were tested against EPHB1 (UniProt P54762) in the same assay as above.
Chain of EPHB1 (P54762 whole entry, looked up): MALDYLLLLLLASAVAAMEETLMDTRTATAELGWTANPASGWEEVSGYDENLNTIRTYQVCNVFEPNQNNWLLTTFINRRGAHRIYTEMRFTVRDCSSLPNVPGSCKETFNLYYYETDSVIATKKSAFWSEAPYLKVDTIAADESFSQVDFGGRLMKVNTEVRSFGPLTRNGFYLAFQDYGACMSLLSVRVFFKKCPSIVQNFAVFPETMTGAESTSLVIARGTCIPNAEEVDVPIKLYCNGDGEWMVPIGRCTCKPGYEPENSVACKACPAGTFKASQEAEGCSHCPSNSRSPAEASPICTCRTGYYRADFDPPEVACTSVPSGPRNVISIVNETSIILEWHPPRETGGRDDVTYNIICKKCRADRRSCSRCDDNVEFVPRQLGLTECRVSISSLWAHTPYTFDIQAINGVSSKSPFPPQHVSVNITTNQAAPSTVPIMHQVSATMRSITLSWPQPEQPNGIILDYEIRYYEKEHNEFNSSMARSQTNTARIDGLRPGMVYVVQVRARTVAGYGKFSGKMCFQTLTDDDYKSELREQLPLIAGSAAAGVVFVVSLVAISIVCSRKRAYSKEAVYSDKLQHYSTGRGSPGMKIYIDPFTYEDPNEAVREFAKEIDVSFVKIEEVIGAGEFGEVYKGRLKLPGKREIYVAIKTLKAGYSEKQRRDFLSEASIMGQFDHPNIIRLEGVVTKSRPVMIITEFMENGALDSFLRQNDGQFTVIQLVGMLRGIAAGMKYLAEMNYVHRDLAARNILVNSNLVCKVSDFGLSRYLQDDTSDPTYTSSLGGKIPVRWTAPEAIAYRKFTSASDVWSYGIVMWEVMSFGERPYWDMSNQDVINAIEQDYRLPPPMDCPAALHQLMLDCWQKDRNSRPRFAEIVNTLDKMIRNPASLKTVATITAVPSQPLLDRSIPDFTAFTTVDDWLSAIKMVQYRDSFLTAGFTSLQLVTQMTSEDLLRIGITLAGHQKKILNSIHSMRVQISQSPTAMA

Going from KQQEIYQEVTQ [CD209_Y239_L242V] to YEPDAYYDLDQ [ELP5_Y302_D303Y], the phosphorylation enrichment falls from 7.2 to 1.05.

First: CPEASYNRSPI [PTAR1_Y42_R41S]
Second: FKTPIYPFLLP [PLD2_Y578_T577I_YF]
The phosphorylation enrichment of the first is higher: 0.602 for the first, 0.564 for the second.

First: EEQKKNYNAMK [SCN5A_Y1494_Y1494N]
Second: RYVVLYDAELT [ERCC4_Y581]
The phosphorylation enrichment of the first is lower: 0.389 for the first, 2.77 for the second.

First: FSLIHYARIVD [MYH7_Y582_G584R]
Second: MVSLFYGTALF [OR10C1_Y251]
The phosphorylation enrichment of the first is lower: 0.702 for the first, 0.757 for the second.

Compared with TRDVNYGWIIH [MT-CYB_Y75_R80H], FMMMRYSQNVR [SDAD1_Y656] is lower in phosphorylation enrichment: 0.938 for the first, 0.614 for the second.

Compared with REEKNDKLKET [BCLAF1_Y459_Y459D], FFPANYVAPMT [GRAP2_Y324_L319F] is higher in phosphorylation enrichment: 0.773 for the first, 4.84 for the second.

First: SDGHEYIYVDR [PDGFRB_Y579_P584R]
Second: LLREWYMIFSR [HUWE1_Y4066_I4069F]
The phosphorylation enrichment of the first is lower: 0.663 for the first, 1.07 for the second.

Compared with KHMADYPDCKF [SOX11_Y113_Y116C_YF], FLQEIHNSNNQ [FGG_Y140_Y140H_YF] is higher in phosphorylation enrichment: 0.532 for the first, 0.561 for the second.

Compared with WASGIYYVPKG [APBB1IP_Y340_R335W], NDFGNYNNQSS [HNRNPA1_Y318] is lower in phosphorylation enrichment: 15.3 for the first, 0.392 for the second.

First: FMIISYVLIIR [OR1D2_Y218_V214M]
Second: ISKILYHIIKG [CDH17_Y489_S484I]
The phosphorylation enrichment of the first is lower: 0.225 for the first, 0.679 for the second.

Compared with GLIPAYHRVIV [NMNAT1_Y64_M69V], SSGSRYQPLAS [NCAPD2_Y1325_T1321S] is lower in phosphorylation enrichment: 0.515 for the first, 0.366 for the second.

Compared with DRVALYIAREG [AACS_Y117], FTGSTYRVGDT [FN1_Y106_N104S_YF] is lower in phosphorylation enrichment: 0.671 for the first, 0.41 for the second.

First: EALDFYGEVRT [PTEN_Y155]
Second: RDWSHYFKIIE [KRT18_Y129]
The phosphorylation enrichment of the first is higher: 0.829 for the first, 0.824 for the second.

First: WQQQSYLDSRI [CTNNB1_Y30_G34R]
Second: HSDDDYDDPEL [CLNK_Y69]
The phosphorylation enrichment of the first is lower: 0.444 for the first, 0.477 for the second.

Going from DFNPNYCFAGK [ALK_Y1096_YF] to FKGIVYAVSSD [DCX_Y70], the phosphorylation enrichment falls from 1.72 to 0.416.

First: HKANEYFPVVL [ADAMTS18_Y764_YF]
Second: QGLRLYRAHLA [BTK_Y617_P619A]
The phosphorylation enrichment of the first is higher: 0.951 for the first, 0.587 for the second.

MYRVQYNSSVD [LRFN1_Y458_Q455R] showed a phosphorylation enrichment of 0.487.

Each sequence was assayed against EPHB2 (UniProt P29323) in the same assay as above.
Chain of EPHB2 (P29323 whole entry, looked up): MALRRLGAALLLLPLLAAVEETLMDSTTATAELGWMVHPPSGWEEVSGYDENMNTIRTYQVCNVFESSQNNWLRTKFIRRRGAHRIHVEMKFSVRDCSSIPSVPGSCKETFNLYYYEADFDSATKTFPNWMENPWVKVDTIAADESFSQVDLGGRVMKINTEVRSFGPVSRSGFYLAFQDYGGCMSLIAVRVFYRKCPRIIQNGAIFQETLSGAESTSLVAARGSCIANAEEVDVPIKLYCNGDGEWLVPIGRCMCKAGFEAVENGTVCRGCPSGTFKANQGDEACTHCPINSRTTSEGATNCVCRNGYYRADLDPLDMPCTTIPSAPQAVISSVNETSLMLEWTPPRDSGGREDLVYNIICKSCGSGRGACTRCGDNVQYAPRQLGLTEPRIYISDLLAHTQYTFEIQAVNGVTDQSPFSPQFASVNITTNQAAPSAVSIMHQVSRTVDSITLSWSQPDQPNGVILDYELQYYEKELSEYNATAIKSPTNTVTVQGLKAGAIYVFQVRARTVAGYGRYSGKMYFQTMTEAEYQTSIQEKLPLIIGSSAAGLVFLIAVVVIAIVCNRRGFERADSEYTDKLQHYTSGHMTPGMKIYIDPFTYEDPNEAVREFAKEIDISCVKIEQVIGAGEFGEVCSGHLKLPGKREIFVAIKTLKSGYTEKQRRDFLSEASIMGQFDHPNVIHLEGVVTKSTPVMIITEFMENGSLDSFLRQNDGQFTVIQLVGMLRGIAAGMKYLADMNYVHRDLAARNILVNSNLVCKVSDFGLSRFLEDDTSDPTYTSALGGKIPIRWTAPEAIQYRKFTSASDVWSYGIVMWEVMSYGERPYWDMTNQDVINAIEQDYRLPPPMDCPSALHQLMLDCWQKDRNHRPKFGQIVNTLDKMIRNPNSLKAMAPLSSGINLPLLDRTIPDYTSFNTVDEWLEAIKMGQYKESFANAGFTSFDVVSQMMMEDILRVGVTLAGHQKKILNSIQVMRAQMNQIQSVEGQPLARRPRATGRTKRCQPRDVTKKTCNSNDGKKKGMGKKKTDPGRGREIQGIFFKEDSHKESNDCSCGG

Going from KQQEIYQEVTQ [CD209_Y239_L242V] to YEPDAYYDLDQ [ELP5_Y302_D303Y], the phosphorylation enrichment falls from 4.5 to 0.833.

Compared with CPEASYNRSPI [PTAR1_Y42_R41S], FKTPIYPFLLP [PLD2_Y578_T577I_YF] is lower in phosphorylation enrichment: 0.565 for the first, 0.563 for the second.

Going from EEQKKNYNAMK [SCN5A_Y1494_Y1494N] to RYVVLYDAELT [ERCC4_Y581], the phosphorylation enrichment rises from 0.364 to 1.96.

Going from FSLIHYARIVD [MYH7_Y582_G584R] to MVSLFYGTALF [OR10C1_Y251], the phosphorylation enrichment rises from 0.63 to 0.708.

First: TRDVNYGWIIH [MT-CYB_Y75_R80H]
Second: FMMMRYSQNVR [SDAD1_Y656]
The phosphorylation enrichment of the first is higher: 1.14 for the first, 0.626 for the second.

Compared with REEKNDKLKET [BCLAF1_Y459_Y459D], FFPANYVAPMT [GRAP2_Y324_L319F] is higher in phosphorylation enrichment: 0.606 for the first, 2.17 for the second.

First: SDGHEYIYVDR [PDGFRB_Y579_P584R]
Second: LLREWYMIFSR [HUWE1_Y4066_I4069F]
The phosphorylation enrichment of the first is lower: 0.645 for the first, 1.57 for the second.

Compared with KHMADYPDCKF [SOX11_Y113_Y116C_YF], FLQEIHNSNNQ [FGG_Y140_Y140H_YF] is lower in phosphorylation enrichment: 0.556 for the first, 0.436 for the second.

Going from WASGIYYVPKG [APBB1IP_Y340_R335W] to NDFGNYNNQSS [HNRNPA1_Y318], the phosphorylation enrichment falls from 17 to 0.352.

Going from FMIISYVLIIR [OR1D2_Y218_V214M] to ISKILYHIIKG [CDH17_Y489_S484I], the phosphorylation enrichment rises from 0.483 to 0.535.

Compared with GLIPAYHRVIV [NMNAT1_Y64_M69V], SSGSRYQPLAS [NCAPD2_Y1325_T1321S] is lower in phosphorylation enrichment: 0.453 for the first, 0.431 for the second.

Going from DRVALYIAREG [AACS_Y117] to FTGSTYRVGDT [FN1_Y106_N104S_YF], the phosphorylation enrichment falls from 0.534 to 0.384.

First: EALDFYGEVRT [PTEN_Y155]
Second: RDWSHYFKIIE [KRT18_Y129]
The phosphorylation enrichment of the first is lower: 0.65 for the first, 1.08 for the second.

Compared with WQQQSYLDSRI [CTNNB1_Y30_G34R], HSDDDYDDPEL [CLNK_Y69] is higher in phosphorylation enrichment: 0.473 for the first, 0.719 for the second.

Going from DFNPNYCFAGK [ALK_Y1096_YF] to FKGIVYAVSSD [DCX_Y70], the phosphorylation enrichment falls from 0.989 to 0.49.

First: HKANEYFPVVL [ADAMTS18_Y764_YF]
Second: QGLRLYRAHLA [BTK_Y617_P619A]
The phosphorylation enrichment of the first is higher: 1.5 for the first, 0.602 for the second.

With MYRVQYNSSVD [LRFN1_Y458_Q455R] the phosphorylation enrichment was 0.437.

What follows are sequences tested against FGFR1 (UniProt P11362) in the same assay as above.
Chain of FGFR1 (P11362 whole entry, looked up): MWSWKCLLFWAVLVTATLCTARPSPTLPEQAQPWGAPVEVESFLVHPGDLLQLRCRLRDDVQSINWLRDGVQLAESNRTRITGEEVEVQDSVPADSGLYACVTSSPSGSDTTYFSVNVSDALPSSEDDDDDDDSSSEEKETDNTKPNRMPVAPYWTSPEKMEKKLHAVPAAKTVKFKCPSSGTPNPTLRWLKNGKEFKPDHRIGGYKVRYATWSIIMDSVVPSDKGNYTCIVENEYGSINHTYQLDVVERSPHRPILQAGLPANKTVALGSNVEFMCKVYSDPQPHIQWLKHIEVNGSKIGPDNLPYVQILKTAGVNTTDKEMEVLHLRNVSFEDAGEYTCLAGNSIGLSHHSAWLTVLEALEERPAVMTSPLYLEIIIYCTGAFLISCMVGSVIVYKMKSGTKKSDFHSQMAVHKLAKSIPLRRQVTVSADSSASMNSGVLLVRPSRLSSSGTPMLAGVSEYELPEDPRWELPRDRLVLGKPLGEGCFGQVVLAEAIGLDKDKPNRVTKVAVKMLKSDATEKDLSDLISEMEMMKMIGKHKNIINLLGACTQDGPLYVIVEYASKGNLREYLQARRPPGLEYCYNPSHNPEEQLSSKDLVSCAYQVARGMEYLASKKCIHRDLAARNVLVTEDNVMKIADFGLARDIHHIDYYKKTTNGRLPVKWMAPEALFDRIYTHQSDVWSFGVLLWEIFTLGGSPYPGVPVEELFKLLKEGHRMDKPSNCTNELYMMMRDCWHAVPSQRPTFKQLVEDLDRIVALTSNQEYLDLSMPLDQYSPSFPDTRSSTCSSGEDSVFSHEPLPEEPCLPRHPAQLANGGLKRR

Going from KQQEIYQEVTQ [CD209_Y239_L242V] to YEPDAYYDLDQ [ELP5_Y302_D303Y], the phosphorylation enrichment rises from 2.56 to 8.16.

Compared with CPEASYNRSPI [PTAR1_Y42_R41S], FKTPIYPFLLP [PLD2_Y578_T577I_YF] is higher in phosphorylation enrichment: 0.58 for the first, 1.06 for the second.

First: EEQKKNYNAMK [SCN5A_Y1494_Y1494N]
Second: RYVVLYDAELT [ERCC4_Y581]
The phosphorylation enrichment of the first is lower: 0.433 for the first, 0.736 for the second.

Compared with FSLIHYARIVD [MYH7_Y582_G584R], MVSLFYGTALF [OR10C1_Y251] is lower in phosphorylation enrichment: 0.576 for the first, 0.51 for the second.

Going from TRDVNYGWIIH [MT-CYB_Y75_R80H] to FMMMRYSQNVR [SDAD1_Y656], the phosphorylation enrichment falls from 0.703 to 0.432.

Going from REEKNDKLKET [BCLAF1_Y459_Y459D] to FFPANYVAPMT [GRAP2_Y324_L319F], the phosphorylation enrichment falls from 0.868 to 0.65.

Going from SDGHEYIYVDR [PDGFRB_Y579_P584R] to LLREWYMIFSR [HUWE1_Y4066_I4069F], the phosphorylation enrichment falls from 2.04 to 0.713.

Compared with KHMADYPDCKF [SOX11_Y113_Y116C_YF], FLQEIHNSNNQ [FGG_Y140_Y140H_YF] is higher in phosphorylation enrichment: 0.587 for the first, 0.606 for the second.

Compared with WASGIYYVPKG [APBB1IP_Y340_R335W], NDFGNYNNQSS [HNRNPA1_Y318] is lower in phosphorylation enrichment: 8.05 for the first, 0.417 for the second.

FMIISYVLIIR [OR1D2_Y218_V214M] and ISKILYHIIKG [CDH17_Y489_S484I] are the same in phosphorylation enrichment: 0.651 for the first, 0.651 for the second.

Going from GLIPAYHRVIV [NMNAT1_Y64_M69V] to SSGSRYQPLAS [NCAPD2_Y1325_T1321S], the phosphorylation enrichment falls from 0.627 to 0.468.

Going from DRVALYIAREG [AACS_Y117] to FTGSTYRVGDT [FN1_Y106_N104S_YF], the phosphorylation enrichment falls from 0.519 to 0.425.

Compared with EALDFYGEVRT [PTEN_Y155], RDWSHYFKIIE [KRT18_Y129] is higher in phosphorylation enrichment: 0.501 for the first, 0.687 for the second.

Going from WQQQSYLDSRI [CTNNB1_Y30_G34R] to HSDDDYDDPEL [CLNK_Y69], the phosphorylation enrichment rises from 0.484 to 0.646.

First: DFNPNYCFAGK [ALK_Y1096_YF]
Second: FKGIVYAVSSD [DCX_Y70]
The phosphorylation enrichment of the first is higher: 0.742 for the first, 0.424 for the second.

Going from HKANEYFPVVL [ADAMTS18_Y764_YF] to QGLRLYRAHLA [BTK_Y617_P619A], the phosphorylation enrichment falls from 8.42 to 0.521.

MYRVQYNSSVD [LRFN1_Y458_Q455R] was tested, and the phosphorylation enrichment was 0.433.
